To fix the notation:
B1: equine IgG4 K311W (antibody, part only; not given: variable domains, not shown: another chain or arm of the molecule)
constant: ASTTAPKVFPLASHSAATSGSTVALGCLVSSYFPEPVTVSWNSGALTSGVHTFPSVLQSSGLYSLSSMVTVPASSLKSQTYICNVAHPASSTKVDKKIVIKECNGGCPAECLQVGPSVFIFPPKPKDVLMISRTPTVTCVVVDVGHDFPDVQFNWYVDGVETHTATTEPKQEQFNSTYRVVSVLPIQHWDWLSGKEFKCKVNNKALPAPVERTISKPTGQPREPQVYVLAPHRDELSKNKVSVTCLVKDFYPTDIDIEWKSNGQPEPETKYSTTPAQLDSDGSYFLYSKLTVETNRWQQGTTFTCAVMHEALHNHYTEKSVSKSPGK
B2: equine IgG4 A426H (antibody, part only; not given: variable domains, not shown: another chain or arm of the molecule)
constant: B1 constant with W189K, A306H
B3: equine IgG4 K311Y (antibody, part only; not given: variable domains, not shown: another chain or arm of the molecule)
constant: B1 constant with W189Y
B4: equine IgG4 A426F (antibody, part only; not given: variable domains, not shown: another chain or arm of the molecule)
constant: B1 constant with W189K, A306F
B5: equine IgG4 A426K (antibody, part only; not given: variable domains, not shown: another chain or arm of the molecule)
constant: B1 constant with W189K, A306K
B6: equine IgG4 A426E (antibody, part only; not given: variable domains, not shown: another chain or arm of the molecule)
constant: B1 constant with W189K, A306E
B7: equine IgG4 A426C (antibody, part only; not given: variable domains, not shown: another chain or arm of the molecule)
constant: B1 constant with W189K, A306C
B8: equine IgG4 A426L (antibody, part only; not given: variable domains, not shown: another chain or arm of the molecule)
constant: B1 constant with W189K, A306L
B9: equine IgG4 A426G (antibody, part only; not given: variable domains, not shown: another chain or arm of the molecule)
constant: B1 constant with W189K, A306G
B10: equine IgG4 A426D (antibody, part only; not given: variable domains, not shown: another chain or arm of the molecule)
constant: B1 constant with W189K, A306D
B11: equine IgG4 A426I (antibody, part only; not given: variable domains, not shown: another chain or arm of the molecule)
constant: B1 constant with W189K, A306I
B12: equine IgG1 T286I (antibody, part only; not given: variable domains, not shown: another chain or arm of the molecule)
constant: ASTTAPKVFALAPGCGTTSDSTVALGCLVSGYFPEPVKVSWNSGSLTSGVHTFPSVLQSSGFYSLSSMVTVPASTWTSETYICNVVHAASNFKVDKRIEPIPDNHQKVCDMSKCPKCPAPELLGGPSVFIFPPNPKDTLMITRTPEVTCVVVDVSQENPDVKFNWYMDGVEVRIATTRPKEEQFNSTYRVVSVLRIQHQDWLSGKEFKCKVNNQALPQPIERTITKTKGRSQEPQVYVLAPHPDELSKSKVSVTCLVKDFYPPEINIEWQSNGQPELETKYSTTQAQQDSDGSYFLYSKLSVDRNRWQQGTTFTCGVMHEALHNHYTQKNVSKNPGK
B13: equine IgG1 T286K (antibody, part only; not given: variable domains, not shown: another chain or arm of the molecule)
constant: B12 constant with I174K

Positions count from the first letter of the chain named. In names and notes the source's numbering stands.

This assay deals with equine FcRn (large alpha subunit p51) / equine beta-2-microglobulin complex, biotinylated (equine) (UniProt P30441). As to the kind of experiment: SPR (Biacore), pH 6.
Sequence of UniProt P30441 (P30441 21-118, one chain of several): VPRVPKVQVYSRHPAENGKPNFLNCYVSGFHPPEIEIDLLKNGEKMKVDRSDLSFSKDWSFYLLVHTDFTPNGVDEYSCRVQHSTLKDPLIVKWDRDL
What is called Kd is the free concentration of one partner at which half of the binding sites on the other are occupied at equilibrium, for simple one-to-one binding. A higher Kd goes with a looser complex. B1 had a Kd of 27.1 nM.

B2 came in with a Kd of 17.8 nM. This Kd is about 1.5-fold lower than that of the molecule before.

As to B3, the dissociation constant Kd is 21.3 nM.

In turn, B4 showed a Kd of 17.6 nM. The Kd values of the last two molecules are within 1.5-fold of each other.

The molecule B5 displayed an equilibrium dissociation constant (Kd) of 14.5 nM.

In the case of B6, the Kd is 18.2 nM.

As to B7, the Kd was determined as 18.2 nM. This lies in the double-digit nanomolar range.

B8: the Kd was 17.4 nM.

For B9, the dissociation constant Kd came to 33.3 nM.

On to B10, for which the Kd is 15.5 nM.

B11 came in with a Kd of 17.4 nM. The Kd values of the last two molecules are within 1.5-fold of each other.

For the molecule B12, the dissociation constant (Kd) turned out to be 18.2 nM.

Take B13: the Kd is 37.3 nM.

(Values after patent US20260070987A1.)
